Results: PMC2121072 (The Journal of Cell Biology, 1996)

B1: protein 4.1: native protein 4.1 isolated from human RBCs (protein, UniProt P11171 1-864, looked up)
Protein 4.1: MTTEKSLVTEAENSQHQQKEEGEEAINSGQQEPQQEESCQTAAEGDNWCEQKLKASNGDTPTHEDLTKNKERTSESRGLSRLFSSFLKRPKSQVSEEEGKEVESDKEKGEGGQKEIEFGTSLDEEIILKAPIAAPEPELKTDPSLDLHSLSSAETQPAQEELREDPDFEIKEGEGLEECSKIEVKEESPQSKAETELKASQKPIRKHRNMHCKVSLLDDTVYECVVEKHAKGQDLLKRVCEHLNLLEEDYFGLAIWDNATSKTWLDSAKEIKKQVRGVPWNFTFNVKFYPPDPAQLTEDITRYYLCLQLRQDIVAGRLPCSFATLALLGSYTIQSELGDYDPELHGVDYVSDFKLAPNQTKELEEKVMELHKSYRSMTPAQADLEFLENAKKLSMYGVDLHKAKDLEGVDIILGVCSSGLLVYKDKLRINRFPWPKVLKISYKRSSFFIKIRPGEQEQYESTIGFKLPSYRAAKKLWKVCVEHHTFFRLTSTDTIPKSKFLALGSKFRYSGRTQAQTRQASALIDRPAPHFERTASKRASRSLDGAAAVDSADRSPRPTSAPAITQGQVAEGGVLDASAKKTVVPKAQKETVKAEVKKEDEPPEQAEPEPTEAWKVEKTHIEVTVPTSNGDQTQKLAEKTEDLIRMRKKKRERLDGENIYIRHSNLMLEDLDKSQEEIKKHHASISELKKNFMESVPEPRPSEWDKRLSTHSPFRTLNINGQIPTGEGPPLVKTQTVTISDNANAVKSEIPTKDVPIVHTETKTITYEAAQTDDNSGDLDPGVLLTAQTITSETPSSTTTTQITKTVKGGISETRIEKRIVITGDADIDHDQVLVQAIKEAKEQHPDMSVTKVVVHQETEIADE
B2: PTP-H1: tyrosine phosphatase expressed in the baculovirus expression system (protein)
chain: MTSRLRALGGRINNIRTSELPKEKTRSEVICSIHFLDGVVQTFKVTKQDTGQVLLDMVHNHLGVTEKEYFGLQHDDDSVDSPRWLEASKAIRKQLKGGFPCTLHFRVRFFIPDPNTLQQEQTRHLYFLQLKMDICEGRLTCPLNSAVVLASYAVQSHFGDYNSSIHHPGYLSDSHFIPDQNEDFLTKVESLHEQHSGLKQSEAESCYINIARTLDFYGVELHSGRDLHNLDLMIGIASAGVAVYRKYICTSFYPWVNILKISFKRKKFFIHQRQKQAESREHIVAFNMLNYRSCKNLWKSCVEHHTFFQAKKLLPQEKNVLSQYWTMGSRNTKKSVNNQYCKKVIGGMVWNPAMRRSLSVEHLETKSLPSRSPPITPNWRSPRLRHEIRKPRHSSADNLANEMTYITETEDVFYTYKGSLAPQDSDSEVSQNRSPHQESLSENNPAQSYLTQKSSSSVSPSSNAPGSCSPDGVDQQLLDDFHRVTKGGSTEDASQYYCDKNDNGDSYLVLIRITPDEDGKFGFNLKGGVDQKMPLVVSRINPESPADTCIPKLNEGDQIVLINGRDISEHTHDQVVMFIKASRESHSRELALVIRRRAVRSFADFKSEDELNQLFPEAIFPMCPEGGDTLEGSMAQLKKGLESGTVLIQFEQLYRKKPGLAITFAKLPQNLDKNRYKDVLPYDTTRVLLQGNEDYINASYVNMEIPAANLVNKYIATQGPLPHTCAQFWQVVWDQKLSLIVMLTTLTERGRTKCHQYWPDPPDVMNHGGFHIQCQSEDCTIAYVSREMLVTNTQTGEEHTVTHLQYVAWPDHGVPDDSSDFLEFVNYVRSLRVDSEPVLVHCSAGIGRTGVLVTMETAMCLTERNLPIYPLDIVRKMRDQRAMMVQTSSQYKFVCEAILRVYEEGLVQMLDPS

Key:
[1] = test system: protease-resistant module of hDlg containing PDZ domains 1 and 2; details: ref Lue et al., 1995 [Abstract #1557]; cited from earlier work
[2] = test system: PDZ 1+2 module; experiment: Blot overlay assay; format: binding, human; details: data not shown
[3] = test system: three PDZ domains of hDlg; details: ref Lue et al., 1994; cited from earlier work
[4] = target: GST-hDlg fusion protein (Homo sapiens, UniProt Q12959); experiment: Binding of ezrin / PTP-H1 to GST-hDlg; details: PTP-H1 expressed in baculovirus system; data not shown

| Molecule | binding to protease-resistant module [1] | binding of protein 4.1 to PDZ 1+2 module [2] | affinity for three PDZ domains vs 4.1B (I3) domain [3] | interaction with GST-hDlg [4] |
| --- | --- | --- | --- | --- |
| B1 | binds | no binding | significantly lower affinity |  |
| B2 |  |  |  | no interaction |
